B1: PD-L1 Nb #15 (VHH)
VHH: HVQLVESGGGLVQPGGSLRLSCAASGFTFSSKAMSWVRQAPGKGLDWVSTINSGGGNTYYSDSVKGRFTISRDNAKNTLYLQLNSLKTEDTAMYYCSRCSDIYCGGQYTYRGQGTLVTVSS
notes: Prepared as a free nanobody; also called PD-L1 nanobody
B2: PD-L1 Nb #3 (VHH)
VHH: EVQLVESGGGLVQPGGSLRLSCVASGFTFSSIGMSWVRQAPGKGLEWVSGLNPVGSHTGYADSVKGRFTISRDNAKNTLHLQLNSLKTEDTAMYYCQRGYTCSGDLCERGQGTQVTVSS
notes: as for B1

Experiments:
[1] = biological target: HLA-G recombinant protein (Origene, CAT #: TP305216) (human) (UniProt P17693); test: competitive ELISA; competitor biotinylated LILRB1 on HLA-G recombinant protein
[2] = biological target: HLA-G recombinant protein (Origene, CAT #: TP305216) (human) (UniProt P17693); test: competitive ELISA on HLA-G recombinant protein; blocked ligand: biotinylated LILRB1
[3] = biological target: HLA-G recombinant protein (Origene, CAT #: TP305216) (human) (UniProt P17693); test: competitive ELISA; competitor biotinylated KIR2DL4 on HLA-G recombinant protein
[4] = biological target: HLA-G recombinant protein (Origene, CAT #: TP305216) (human) (UniProt P17693); test: competitive ELISA on HLA-G recombinant protein; blocked ligand: biotinylated KIR2DL4
[5] = biological target: T1, PD-L1 on PD-L1 aAPC/CHO-K1 cells (PD-1/PD-L1 Blockade Bioassay Kit, Promega) (UniProt Q9NZQ7 19-290, limits assumed); test: cell-based or functional assay
[6] = biological target: T2, PD-L1 recombinant protein (Sino Biological, CAT #: 10084-H05H) (UniProt Q9NZQ7 19-239); test: SPR
T2 construct: Bought protein; also called programmed death-ligand 1
Procedure: The kinetic analysis of the PD-L1 nanobodies of the present disclosure and the binding affinity analysis of the PD-L1 recombinant protein (Sino Biological, CAT #: 10084-H05H) are performed by SPR analysis.

[7] = biological target: T1, PD-L1 on PD-L1 aAPC/CHO-K1 cells …; test: cell-based or functional assay; remark: listed apart in the source

T2 sequence (Q9NZQ7 19-239 limits assumed): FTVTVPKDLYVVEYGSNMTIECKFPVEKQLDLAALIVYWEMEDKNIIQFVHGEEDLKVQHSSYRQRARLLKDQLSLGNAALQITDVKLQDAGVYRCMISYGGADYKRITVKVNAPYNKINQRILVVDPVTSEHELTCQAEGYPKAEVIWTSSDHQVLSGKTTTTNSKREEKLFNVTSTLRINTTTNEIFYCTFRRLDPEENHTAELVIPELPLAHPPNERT
T1 sequence (Q9NZQ7 19-290 limits assumed): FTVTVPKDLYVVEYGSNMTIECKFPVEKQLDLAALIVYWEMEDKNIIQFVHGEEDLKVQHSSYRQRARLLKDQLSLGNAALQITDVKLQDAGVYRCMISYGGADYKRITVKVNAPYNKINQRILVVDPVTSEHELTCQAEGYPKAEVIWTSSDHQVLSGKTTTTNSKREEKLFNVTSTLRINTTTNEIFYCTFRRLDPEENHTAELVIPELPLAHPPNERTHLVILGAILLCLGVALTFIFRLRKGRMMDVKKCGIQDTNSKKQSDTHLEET

Molecule	IC50 [1] [nM]	IC50 (read off the curve) [2] [nM]	IC50 [3] [nM]	IC50 (read off the curve) [4] [nM]	IC50 for the PD-1 blocking activity (PD-1/PD-L1 Blockade Bioassay, luminescence) [5] [nM]	Kd [6] [nM]	koff [6] [s⁻¹]	kon [6] [M⁻¹ s⁻¹]	IC50 (read off the curve); PD-1/PD-L1 Blockade Bioassay (Promega), bioluminescence (RLU), which rises with the concentration [7] [nM]
HLA-G monoclonal antibody (87G, ThermoFisher)	> 1000	7000	104	100					
B1					~0.48	0.91	0.000936	1.03e+06	
B2					~37.7	0.86	0.00521	6.04e+06	~20

Source: patent US20230038878A1 (EVER SUPREME BIO TECHNOLOGY, published 2023)
